From the supplement of paper PMC9732359
± gives the uncertainty stated by the source.

Assay: protein stability index of a GFP-peptide fusion (yeast GPS) (PSI 1-4); higher = more stable; sorted into four equal gates, so the index is relative within each strain
Summary of the method: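 Each library plasmid carries Cherry plus GFP with a tiled 17-residue yeast protein peptide fused downstream, and the pooled library was carried in yeast. Mid-log cultures in leucine-free medium were sorted into four equal gates by GFP/Cherry ratio. Reads from Illumina sequencing of PCR-amplified plasmids from each gate were assigned to strains by barcodes. Per peptide, the protein stability index was computed as the summed products of gate read frequency and gate number.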

Sequence	protein stability index (doa10∆)	protein stability index (pdr5∆)	protein stability index (san1∆)	protein stability index (ubr1∆)
NVSLIKIEGVATPQDAQ [RPL33A]	2.74 ± 0.082	2.52 ± 0.061	2.38 ± 0.11	2.37 ± 0.059
HHELIKVKHDSQPFIKF [SSN2]	3.14 ± 0.085	2.71 ± 0.099	2.86 ± 0.11	2.88 ± 0.06
YQRSKRVNNPNVSLIKI [RPL33A]	3.1 ± 0.067	3.15 ± 0.065	2.93 ± 0.059	3.21 ± 0.045
HKQELQDLILDLKKKLN [SMC4]	2.55 ± 0.078	2.75 ± 0.16	2.31 ± 0.062	1.75 ± 0.058
LIENGASVRIKDKFNQI [NAS6]		3.12 ± 0.18		3.27 ± 0.065
LAKAVAATIGANFIFSP [RPT4]	2.09 ± 0.048	1.99 ± 0.042	1.72 ± 0.088	2.18 ± 0.069
VSNNVLRRLEILVPDLY [ECM29]	2.31 ± 0.1	1.84 ± 0.083	1.56 ± 0.11	1.65 ± 0.073
IRDSIPQMDSFDKDLER [DIS3]	3.15 ± 0.092	3.32 ± 0.1	3.19 ± 0.061	3.01 ± 0.12
VRSREDRKNRAPPQRPR [RPS26A]	3.27 ± 0.26		2.76 ± 0.12	
VLEERERGQKVKNVKNS [ARP9]	2.71 ± 0.19	2.25 ± 0.078	2.71 ± 0.12	1.19 ± 0.074
KLDLFKYFTELSHYIRQ [MED1]	1.52 ± 0.084	1.44 ± 0.14	1.24 ± 0.17	1.33 ± 0.079
KPFRQTKFKVRGSSSLY [RPL38]	2.83 ± 0.12	3.33 ± 0.071	3.17 ± 0.09	3 ± 0.085
RSSRLHIVYSLLVNPDI [YML103C/NUP188]	1.57 ± 0.047	2.01 ± 0.05	1.87 ± 0.075	2.26 ± 0.05
MSGTTKRLNGKRKYLDI [SSN2]				3.55 ± 0.12
DRREKAERTMSKKETKL [SMC2]	3.31 ± 0.13	3.36 ± 0.092	3.19 ± 0.12	3.39 ± 0.099
KEVLPDLQNLNLNTDKL [YJL039C/NUP192]	3.38 ± 0.1	2.94 ± 0.098	3.25 ± 0.097	2.64 ± 0.085
LAAMAVLESHWKQDLTK [PUP1]	3.24 ± 0.16	3.24 ± 0.14	2.48 ± 0.21	3.71 ± 0.18
QAKLKKNVETLEEKILA [SMC4]	3.09 ± 0.08	2.98 ± 0.077	3.13 ± 0.077	3.13 ± 0.066
GEINKICMESLFLEPSW [PCI8]	1.84 ± 0.12	1.89 ± 0.083	2.03 ± 0.12	1.99 ± 0.063
FQAQQAQQAQQAQQAQQ [SNF2]	2.86 ± 0.052	3 ± 0.046	2.85 ± 0.035	2.73 ± 0.035
KFENDELAESTTTKIID [LRP1]	2.04 ± 0.13	2.47 ± 0.12	2.23 ± 0.086	2.27 ± 0.053
